According to the supplement of paper PMC11908140:

B1: library; numbered along this chain (parent)
chain: MRKPRAAVGSGHRKQAASQEGRQKHAKNNSQAKPSACDGLARQPEEVVLQASVSSYHLFRDVAEVTAFRGSLLSWYDQEKRDLPWRRRAEDEMDLDRRAYAVWVSEVMLQQTQVATVINYYTGWMQKWPTLQDLASASLEEVNQLWAGLGYYSRGRRLQEGARKVVEELGGHMPRTAETLQQLLPGVGRYTAGAIASIAFGQATGVVDGNVARVLCRVRAIGADPSSTLVSQQLWGLAQQLVDPARPGDFNQAAMELGATVCTPQRPLCSQCPVESLCRARQRVEQEQLLASGSLSGSPDVEECAPNTGQCHLCLPPSEPWDQTLGVVNFPRKASRKPPREESSATCVLEQPGALGAQILLVQRPNSGLLAGLWEFPSVTWEPSEQLQRKALLQELQRWAGPLPATHLRHLGEVVHTFSHIKLTYQVYGLALEGQTPVTTVPPGARWLTQEEFHTAAVSTAMKKVFRVYQGQQPGTCMGSKRSQVSSPCSRKKPRMGQQVLDNFFRSHISTDAHSLNSAAQ

Variants of: B1
Test: 8OG:A repair function score (normalized; synonymous = 0, nonsense = -1) (normalized log-likelihood score); higher = more repair activity (WT-like)
Conditions: with 8OG:A DNA repair reporter (GFP) in HEK-293 MUTYH KO cells
Procedure: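 Saturation mutagenesis (NNN codon scan) of the MUTYH cDNA (521-aa nuclear isoform NM_001048174.1 / NP_001041639), stably expressed under doxycycline induction in HEK-293 MUTYH knockout cells. Cells were co-transfected with an 8OG:A-bearing GFP repair reporter plus mCherry and sorted 72 h later into GFP+ and GFP− bins, three replicates per tile. The Rosace log2 enrichment (GFP+ vs GFP−) was converted per tile to a normalized function score with synonymous variants centered at 0 and nonsense variants (codons 1-471) at -1; low-abundance variants were removed.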

8OG:A repair function score of substitutions, site by site:
D61: E -0.0493 | Y -0.0853 | L 0.00218 | I -0.0219 | A -0.0921 | H -0.208 | M -0.00523 | K 0.00675 | T 0.00691 | R -0.037 | C -0.0189 | Q -0.0778 | W -0.127 | F -0.794 | V -0.137 | N -0.0108 | G 0.00587 | S -0.013 | P -0.00103
G70: S -0.0056 | I -0.00774 | R 0.00416 | T -0.693 | M -0.00743 | F -0.115 | D -0.369 | E -0.0876 | C 0.00567 | P -0.126 | A -0.0222 | Q -0.528 | V 0.0055 | L -0.0189
V62: Q -0.0156 | F 0.00406 | R -0.00306 | T 0.00595 | N 0.00416 | H -0.0066 | E -0.456 | S 0.00493 | C -0.00556 | K 0.00655 | P 0.00101 | G 0.0052 | D -0.0781 | L 0.00583 | W -0.0135 | Y 0.00694 | M -0.00891 | I -0.00659 | A -0.00201
A67: N -0.0206 | C 0.00689 | P -0.143 | H -0.0348 | L -0.0838 | D 0.00532 | Y 0.00691 | V -0.000602 | W -0.0846 | T 0.00198 | F -0.0807 | G -0.0739 | S 0.00133 | Q -0.481 | M -0.118 | K -0.0225 | I -0.0242 | R 0.00599 | E -0.0141
L58: Q -0.00261 | G 0.00575 | A 0.00209 | W 0.00529 | F 0.00426 | N 0.00327 | V -0.00997 | T -0.0284 | K -0.021 | R 0.00693 | I -0.00475 | M -0.0211 | C -0.0122 | P -0.622 | S -0.0155 | Y -0.0187 | E 0.0056 | H 0.00605 | D -0.00786
S54: I -0.00479 | M -0.0179 | N -0.00348 | H 0.0058 | C 0.00525 | T -0.0217 | R -0.0174 | W -0.423 | P 0.00682 | E 0.00656 | Y 0.00243 | K -0.0583 | F -0.0664 | D -0.029 | V -0.0294 | Q 0.00389 | A 0.00533 | L 0.00619 | G 0.00441
H57: N -0.729 | R -0.473 | Q -0.657 | V -0.613 | K -0.664 | P -0.793 | T -0.765 | I -0.613 | E -0.74 | A -0.797 | M -1.63 | F -0.751 | Y -0.569 | C -0.642 | S -0.711 | W -1.09 | L -0.734 | D -0.824 | G -0.607
S55: A 0.00283 | H -0.00673 | D 0.00222 | F -0.000223 | T 0.00523 | C -0.043 | I -0.0166 | W -0.0142 | Y 0.000496 | L -0.149 | Q 0.00445 | G 0.00135 | K 0.000876 | V 0.00566 | E -0.00704 | P -0.274 | M -0.0231 | R -0.0153 | N 0.00188
S71: Q -0.0211 | I -0.125 | R -0.0148 | F 0.00684 | H -0.0346 | E -0.0479 | A -0.0236 | P -0.0398 | M 0.00635 | C -0.00534 | T -0.0759 | G -0.000985 | V 0.00531 | D -0.0972 | K -0.0254 | L -0.00671 | N -0.00566
E64: K -0.115 | T 0.00694 | H -0.0871 | V -0.0293 | P -0.284 | A -0.0113 | S -0.158 | F -1.97 | W -0.219 | G -0.0592 | Y -0.98 | C -0.0897 | D -0.0139 | L -0.0405 | N -0.0585 | I -0.193 | Q 0.00334 | R -0.103
A63: R 0.00494 | H -0.0822 | D 0.00576 | C -0.0141 | Q -0.105 | G -0.0575 | V -0.0122 | Y -0.056 | F -0.142 | S 0.00279 | M -0.0357 | W -0.00488 | T 0.00284 | E -0.00911 | I -0.0351 | L -0.00968 | P -0.0204 | K -0.00172 | N -0.101
Y56: A -0.0245 | N -0.0497 | Q -0.0234 | S -0.0461 | D -0.0985 | R -0.0483 | W 0.00662 | G -0.0482 | H -0.00595 | F 0.0047 | I -0.000994 | P -0.0566 | M 0.00205 | E -0.0123 | T -0.011 | C -0.0129 | V -0.015 | L 0.00637 | K -0.0455
R60: V 0.00595 | F -0.0889 | K -0.0179 | Q -0.692 | M 0.00468 | N 0.00565 | C -0.081 | Y -0.014 | E -0.127 | A -0.0135 | L 0.00645 | W -0.564 | D -0.0771 | H -0.196 | T 0.00688 | S 0.00106 | G -0.0378 | I -0.0738 | P -0.0757
V65: F -0.0274 | K 0.00609 | D -0.226 | C -0.00739 | I -0.000598 | H -0.0853 | Q -0.0644 | L -0.0109 | E -0.196 | Y -0.0274 | M -0.139 | T -0.00404 | G -0.206 | R -0.0229 | A -0.138 | P -0.196 | N -0.208 | S -0.0751 | W -0.114
F59: H -0.439 | P -0.371 | D -0.583 | T -0.579 | S -0.561 | I -0.137 | L -0.095 | E -0.768 | Y -0.161 | A -0.359 | V -0.24 | Q -0.967 | G -0.925 | K -1.43 | R -0.753 | W -0.25 | C -0.367 | M -0.121 | N -0.954
F68: G -1.41 | T -0.393 | S -1.34 | Y -0.0444 | W -0.369 | D -1.87 | Q -0.906 | E -1.5 | K -0.962 | H -1.1 | R -1.29 | I -0.126 | A -0.234 | M -0.0967 | N -1.12 | P -1.6 | V -0.0136 | C -0.545 | L -0.141
T66: E 0.00467 | N -0.0376 | Q 0.00332 | F -0.00932 | P -0.115 | G -0.0192 | H -0.091 | I -0.0285 | C 0.00591 | K -0.0706 | V 0.00408 | M -0.0066 | S -0.0428 | D 0.00573 | Y -0.00942 | A -0.0148 | R -0.0902 | L -0.00253
R69: D -1.4 | M -3.11 | A -1.46 | E -3.19 | F -1.53 | N -1.56 | K -0.298 | Y -0.421 | W -3.43 | S -0.0909 | L -1.24 | I -3.35 | P -1.42 | T -0.172 | Q -0.519 | H -1.89 | C -0.33 | V -0.212 | G -0.281
V53: Y -0.0142
